# US20160152995A1, “METHODS AND COMPOSITIONS TO IMPROVE THE SPREAD OF CHEMICAL SIGNALS IN PLANTS” (PIONEER HI-BRED INTERNATIONAL, INC., priority 2013, published 2016)
# Substitutions are numbered along the chain they refer to.
# B1: L8-3B03 (protein)
# chain: MARLDKSKVINSALELLNEVGIEGLTTRKLAQKLGVEQPTLYWHVKNKRALLDALAIEMMDRHQTHYLPLEGESWQDFLRNNAKSCRRALLSHRDGAKVCLGTRWTEQQYESAENMLAFLTQQGFSLENALYAVSAVRVFTLGAVLFDQESQVAKEERETPTTDSMPPLLRQAWELKDHQGAEPAFLFGLELIIRGLEKQLKSESGS
# modifications: Sulfonylurea responsive repressor
# B2: CsL4.2-22 (protein)
# chain: MARLDKSKVINSALELLNEVGIEGLTTRKLAQKLGVEQPTLYWHVKNKRALLDALAIEMHDRHQTHYLPLEGESWQDFLRNFAKSMRRALLSHRDGAKIALGTRWTEQQYETAENMLAFLTQQGFSLENALYATDAVRVFTLGAVLLDQEQQVAKEERETPTPDSMPPLLRQAWELKDHQGAEPAFLFGLELIIAGLEKQLKRESGSHHHHHH
# modifications: Sulfonylurea responsive repressor
# B3: CsL4.2-16 (protein)
# chain: B2 chain with H60M, F78Y, R88C, I99V, A100S, Q151G, K155N, S165R, D178V
# modifications: Sulfonylurea responsive repressor
# B4: CsL4.2-04 (protein)
# chain: B2 chain with R88C, I99V, K155N, E157G, P163T, D178E
# modifications: Sulfonylurea responsive repressor
# B5: CsL4.2-28 (protein)
# chain: B2 chain with H60M, F78Y, R88C, I99V, D135S, E156Q, D178V
# modifications: Sulfonylurea responsive repressor
# B6: CsL4.2-01 (protein)
# chain: B2 chain with F78Y, I99V, Q151G, P163T, D178V
# modifications: Sulfonylurea responsive repressor
# B7: CsL4.2-30 (protein)
# chain: B2 chain with I99V, D135S, Q151G, K155N, D178V
# modifications: Sulfonylurea responsive repressor
# B8: CsL4.2-23 (protein)
# chain: B2 chain with H60M, F78Y, R88C, I99V, D135S, S165R, D178V
# modifications: Sulfonylurea responsive repressor
# B9: CsL4.2-24 (protein)
# chain: B2 chain with F78Y, R88C, I99V, D135S, Q151G, K155N, D178V
# modifications: Sulfonylurea responsive repressor
# B10: CsL4.2-21 (protein)
# chain: B2 chain with H60M, Q64G, F82Y, I99V, F119C, D135S, K155N, P163T, D178V
# modifications: Sulfonylurea responsive repressor
# B11: CsL4.2-07 (protein)
# chain: B2 chain with F78Y, R88C, D178V
# modifications: Sulfonylurea responsive repressor
# B12: CsL4.2-26 (protein)
# chain: B2 chain with F78Y, R88C, I99V, A100S, D135S, S165R, D178V
# modifications: Sulfonylurea responsive repressor
# B13: CsL4.2-08 (protein)
# chain: B2 chain with H60M, I99V, Q123H, D178V, H210Q
# modifications: Sulfonylurea responsive repressor
# B14: CsL4.2-15: top CsR hit of library CsL4.2 (protein)
# chain: MARLDKSKVINSALELLNEVGIEGLTTRKLAQKLGVEQPTLYWHVKNKRALLDALAIEMHDRHQTHYLPLEGESWQDFLRNFAKSMRRALLSHRDGAKVSLGTRWTEQQYETAENMLAFLTQQGFSLENALYATDAVRVFTLGAVLLDQEQQVAKEERETPTTDSMPPLLRQAWELKVHQGAEPAFLFGLELIIAGLEKQLKRESGS
# modifications: Sulfonylurea responsive repressor
# System: E. coli assay strain Km3
# Assay: not given
# Format: cell-based
# Settings: library L8 hits; M9 Xgal colony assay; 200 ppb Chlorsulfuron; 24 hrs
# Experimental: Library L6 was assembled, rescued, ligated into pVER7314, transformed into E. coli KM3 and plated out onto LB carbenicillin/kanamycin, and carbenicillin only control media as before. Library plates were then picked into 42 384-well microtiter plates (˜16,000 clones) containing 60 μl LB carbenicillin (Cb) broth per well. After overnight growth at 37° C. the cultures were stamped onto M9 assay plates containing no inducer, 0.2 ppm, and 2.0 ppm chlorsulfuron as test inducer. Following incubation at 30° C. for ˜48 hrs, putative hits responding to chlorsulfuron treatment as determined by increased blue colony color were re-arrayed into six 96-well microtiter plates and used to stamp a fresh set of M9 assay plates to confirm the above results. For a more detailed analysis of the relative induction by chlorsulfuron, digital photographs were taken of the plates after various time points of incubation at 30° C. and colony color intensity measured using the digital image analysis freeware program ImageJ (Rasband, US National Institutes of Health, Bethesda, Md., USA, rsb.info.nih.gov/ij/, 1997-2007). […] From this analysis sequence-activity relationships were derived. […] Briefly, C at position 100, and Q at positions 108 and 109 strongly correlated with activation, while R at position 138, L at position 170, and A or G at position 173 were highly preferred in clones with the lowest background activity. […] This information will aid in the design of further libraries to improve responsiveness to chlorsulfuron.
# Library L8 construction and screening. Fourth round shuffling incorporated the best diversity from Rd3 shuffling (BB1860) as well as computational diversity (Table 14). As diversity was very high the library oligo mix was spiked into the parental hit variant oligo mix (5, 10, and 25% mixes) to titer down the number of residue changes per clone. In addition, to varying residues for Cs activity, seven residues (C68, C86, C88, C121, C144, C195, and C203) were varied with TetR family phylogenetic substitutions in an attempt to reduce the number of cysteine residues in the repressor. The PCR assembled libraries were cloned Sac1/Asc1 into pVER7334. This plasmid encodes PBAD promoter controlled expression of a plant optimized TetR DNA binding domain fused to the wt ligand binding domain of TetR(B) encoded by native Tn10 sequence on a Sac1 to Asc1 fragment. Approximately 15,000 clones were screened for blue colony color on the M9 Xgal assay plates +/−200 ppb Chlorsulfuron (Cs). Clones were ranked by ratio of color with inducer after 24 hrs incubation over colony color without inducer for 48 hrs of incubation. The sequence trend in the overall larger population of hits (first re-array) was that L55, R104, W105 and L170 were maintained while the C144A substitution was highly preferred. Sequence trends within the hit population were then noted with respect to repression, induction and fold induction (which corrects for leakiness).
# Mutagenesis reactions were transformed into library strain Km3 and 96 colonies tested for substitution by DNA sequence analysis. Substitutions representing each possible residue at each position were then re-arrayed in triplicate onto M9 X-gal assay plates with 0, 20 and 200 ppb Chlorsulfuron. Plates were incubated at 37° C. for 24 and 48 hrs prior to imaging. Residue substitutions were then ranked by activation (emphasis on 20 ppb Cs) and repression characteristics (emphasis on 48 hr time point). The mutation with the greatest impact on activity was substitution of residue N82 to phenylalanine or tyrosine. […] All other preferred substitutions shown in Table 18 either improved repression or improved sensitivity to inducer without compromising repressor function. Certain residues were indispensible to function such as R104, W105, and W174 as substitutions were not allowed. Other residue positions such as R138 and K177 were also flagged as critical since functional substitutions were extremely limited. […]
row,Molecule,IND = induction with 200 ppb Cs at 24 hrs (blue colony color intensity thru ImageJ analysis)
1,B1,0.6

# Same assay, conditions: library L8 hits; M9 Xgal colony assay; ratio IND (200 ppb Cs, 24 hrs) / REP (48 hrs)
row,Molecule,F. IND = fold induction: induction with 200 ppb Cs at 24 hrs/repression at 48 hrs
1,B1,2.4

# Same assay, conditions: library L8 hits; M9 Xgal colony assay; without inducer; 48 hrs
row,Molecule,REP = repression measured without inducer after 48 hrs (blue colony color intensity thru ImageJ analysis)
1,B1,0.3

# System: E. coli assay strain Km3
# Assay: Liquid B-galactosidase assays of chlorsulfuron repressor hits (induction and repression)
# Settings: CsL4.2 hits; 20 ppb Cs vs no inducer
# Experimental: In order to create new diversity for shuffling the top clone from CsL3 was subjected to error prone PCR mutagenesis using Mutazyme (Stratagene). The mutated PCR product encoding the CsR ligand binding domain was inserted into library expression vector pVER7334 as a Sac1 to Asc1 fragment, transformed into library strain Km3 and plated onto LB+40 ug/ml Kanamycin and 50 ug/ml Carbenecillin. Approximately 10,000 colonies were then replica plated onto M9 Xgal assay medium +/−20 ppb Cs. Putative hits were then re-arrayed and replica plated onto the same assay medium. Performance was gauged by the level of blue colony color after 24 hrs incubation on inducer (induction) and 72 hrs incubation without inducer (repression). The top hits were then subjected to liquid B-galactosidase assays for quantitative assessment (Table 21).
# Seventh round library CsL4.2 was designed based on the best diversity from CsL3 and CsL3-MTZ library screens (Table 14). The library was assembled with oligonucleotides shown below in Table 22. The first and last primers were used as rescue primers. CsL4.2 included a C-terminal 6×His-tag extension to facilitate protein purification. The library was assembled and cloned into vector pVER7334 Sac1 to Asc1, transformed into library assay strain Km3 and plated onto LB+40 ug/m1 Kanamycin and 50 ug/ml carbenecillin. Approximately 8,000 colonies were re-arrayed into 384-well format and replica plated onto M9 Xgal assay medium +/−2 ppb Cs. Putative hits were re-arrayed in 96-well format onto the same media for re-testing. Confirmed hits were then tested for induction and repression aspects in liquid culture using B-galactosidase assays.
# Mutagenesis reactions were transformed into E. coli assay strain Km3 and plated onto LB+50 ug/ml Carbenecillin. Colonies were then re-arrayed into 384 well format and replica plated onto M9 Xgal assay medium +/−5 ppb Chlorsulfuron. Putative hits were then re-arrayed and analyzed by B-galactosidase assays relative to the parent clones (FIG. 10).
row,Molecule,F. IND = fold induction (IND/REP) (B-galactosidase)
1,B2,20.8
2,B3,15.2
3,B4,10.2
4,B5,11.3
5,B6,9.8
6,B7,10.8
7,B8,10.5
8,B9,14.3
9,B10,13.2
10,B11,18.9
11,B12,10.6

# Same assay, conditions: CsL4.2 hits; liquid B-galactosidase assay, 20 ppb Cs
row,Molecule,IND = induction with 20 ppb CS (B-galactosidase)
1,B2,5.4
2,B3,3.8
3,B4,4.3
4,B5,5.3
5,B6,3.8
6,B7,4.9
7,B13,10.7
8,B8,10.4
9,B9,5.4
10,B10,3.2
11,B11,6.5
12,B12,3.1
13,B14,4.0

# Same assay, conditions: CsL4.2 hits; liquid B-galactosidase assay, no inducer
row,Molecule,REP = repression in absence of inducer (B-galactosidase)
1,B2,0.3
2,B3,0.3
3,B4,0.4
4,B5,0.5
5,B6,0.4
6,B7,0.5
7,B13,0.7
8,B8,1.0
9,B9,0.4
10,B10,0.2
11,B11,0.3
12,B12,0.3
13,B14,0.2
